From paper PMC9257043

Biological target: recombinant SmFGFRA extracellular ligand binding domain (rSmFGFRA-L) (Schistosoma mansoni)
Assay: BLI; Octet RED 96; biotinylated rSmFGFRA-L immobilised on Streptavidin Biosensors, human aFGF/bFGF in dilution series as analyte; kinetic buffer (PBS with 15 mM NaCl, 0.1 mg/ml BSA, 0.002% Tween-20); association 1000 s, dissociation 1000 s; 30°C, 1000 rpm; double reference subtraction

Substance	Kd [nM]
human acidic FGF (aFGF) (from UniProt P05230 16-155) (ligand)	5.81
human basic FGF (bFGF) (from UniProt P09038 143-288) (ligand)	0.36
